This note sets out measurements from the RNAGym collection of RNA variant scans (doi:10.7554/elife.90254).

The labels stand for the following.
B1: LINE1-mini (parent)
chain: GGCAGAGCUCAACACAGCGUGGCAAAGUGGCUGUGGCUAGACUGCC

Variants of B1 are the subject of the data set. Briefly: self-cleavage, relative activity (ratio to wild type); higher = more cleavage; in vitro, sequencing; the parent is a self-cleaving ribozyme.
Consider GGCAUAGCUCAACACAGCGUGGCAAAGUGCCUGUGGCUAGACUGCC [G5U G30C], for which the self-cleavage came out at 0.05.

Regarding GGCAUAGCUCAACACAGCGUGGCAAAGUGACUGUGGCUAGACUGCC [G5U G30A], the self-cleavage is 0.18. Then GGCAUAGCUCAACACAGCGUGCCAAAGUGGCUGUGGCUAGACUGCC [G5U G22C], with 0.06; and GGCAUAGCUCAACACAGCGUGUCAAAGUGGCUGUGGCUAGACUGCC [G5U G22U], with 0.18; and GGCAUAGCUCAACACAGCGUGACAAAGUGGCUGUGGCUAGACUGCC [G5U G22A], with 0.16. The figure for GGCAGCGCUCAACACAGCGUGGCAAAGUGGCUGUGGCUAGACUGAC [A6C C45A] is 0.47; for GGCAGCGCUCAACACAGCGUGGCAAAGUGGCUGUGGCUAGACUGGC [A6C C45G] it is 0.09.

Consider GGCAGCGCUCAACACAGCGUGGCAAAGUGGCUGUGGCUAGACUGUC [A6C C45U], for which the self-cleavage stood at 0.7. Regarding GGCAGCGCUCAACACAGCGUGGCAAAGUGGCUGUGGCUAGAAUGCC [A6C C42A], the self-cleavage turned out to be 0.11. Then GGCAGCGCUCAACACAGCGUGGCAAAGUGGCUGUGGCUAGAGUGCC [A6C C42G], with 0.02; and GGCAGCGCUCAACACAGCGUGGCAAAGUGGCUGUGGCUAGAUUGCC [A6C C42U], with 0.23. Consider GGCAGCGCUCAACACAGCGUGGCAUAGUGGCUGUGGCUAGACUGCC [A6C A25U], for which the self-cleavage amounted to 0.52. Then GGCAGCGCUCAACACAGCGUGGCAGAGUGGCUGUGGCUAGACUGCC [A6C A25G], with 0.18; and GGCAGCGCUCAACACAGCGUGGCACAGUGGCUGUGGCUAGACUGCC [A6C A25C], with 0.5. Then GGCAGCGCUCAACACAGAGUGGCAAAGUGGCUGUGGCUAGACUGCC [A6C C18A], with 0.2; and GGCAGCGCUCAACACAGUGUGGCAAAGUGGCUGUGGCUAGACUGCC [A6C C18U], with 1.1; and GGCAGCGCUCAACACAGGGUGGCAAAGUGGCUGUGGCUAGACUGCC [A6C C18G], with 0.24. Then GGCAUAGCUCAACACAGCGUGGCAAAGGGGCUGUGGCUAGACUGCC [G5U U28G], with 0.09. As to GGCAUAGCUCAACACAGCGUGGCAAAGCGGCUGUGGCUAGACUGCC [G5U U28C], the self-cleavage worked out at 0.09.

For GGCAUAGCUCAACACAGCGUGGCAAAGAGGCUGUGGCUAGACUGCC [G5U U28A], the self-cleavage worked out at 0.06.

Regarding GGCAUAGCUCAACACAGCGAGGCAAAGUGGCUGUGGCUAGACUGCC [G5U U20A], the self-cleavage is 0.06. The figure for GGCAUAGCUCAACACAGCGGGGCAAAGUGGCUGUGGCUAGACUGCC [G5U U20G] is 0.06; for GGCAUAGCUCAACACAGCGCGGCAAAGUGGCUGUGGCUAGACUGCC [G5U U20C] it is 0.05; for GGCAGCGCUCAACACAGCGUGGCAAGGUGGCUGUGGCUAGACUGCC [A6C A26G] it is 0.65. The figure for GGCAGCGCUCAACACAGCGUGGCAAUGUGGCUGUGGCUAGACUGCC [A6C A26U] is 0.77; for GGCAGCGCUCAACACAGCGUGGCAACGUGGCUGUGGCUAGACUGCC [A6C A26C] it is 0.48. Then GGCAUAGCUCAACACAGCGUGGCAAAGUGGCUGUGGCUAGACUCCC [G5U G44C], with 0.06. As for GGCAUAGCUCAACACAGCGUGGCAAAGUGGCUGUGGCUAGACUACC [G5U G44A], the self-cleavage worked out at 0.08. The figure for GGCAUAGCUCAACACAGCGUGGCAAAGUGGCUGUGGCUAGACUUCC [G5U G44U] is 0.06; for GGCAUAGCUCAACACAGCGUCGCAAAGUGGCUGUGGCUAGACUGCC [G5U G21C] it is 0.09. Then GGCAUAGCUCAACACAGCGUUGCAAAGUGGCUGUGGCUAGACUGCC [G5U G21U], with 0.1; and GGCAUAGCUCAACACAGCGUGGCAAAGUGGCUGUUGCUAGACUGCC [G5U G35U], with 0.15; and GGCAUAGCUCAACACAGCGUGGCAAAGUGGCUGUAGCUAGACUGCC [G5U G35A], with 0.08.

On to GGCAUAGCUCAACACAGCGUGGCAAAGUGGCUGUCGCUAGACUGCC [G5U G35C], for which the self-cleavage was found to be 0.06. GGCAGCGCUCAACACAGCGUGGCAAAGUGGCUGUGGCUAGUCUGCC [A6C A41U]: the self-cleavage worked out at 0.1.

Turning to GGCAGCGCUCAACACAGCGUGGCAAAGUGGCUGUGGCUAGGCUGCC [A6C A41G], the self-cleavage turned out to be 1.17. Then GGCAGCGCUCAACACAGCGUGGCAAAGUGGCUGUGGCUAGCCUGCC [A6C A41C], with 0.04; and GGCAGCACUCAACACAGCGUGGCAAAGUGGCUGUGGCUAGACUGCC [A6C G7A], with 0.18. Then GGCAGCGCUCAACACAGCGUGGUAAAGUGGCUGUGGCUAGACUGCC [A6C C23U], with 0.62; and GGCAGCGCUCAACACAGCGUGGGAAAGUGGCUGUGGCUAGACUGCC [A6C C23G], with 0.43. Then GGCAGCGCUCAACACAGCGUGGAAAAGUGGCUGUGGCUAGACUGCC [A6C C23A], with 0.5.

With GGCAGCGCUCAACAUAGCGUGGCAAAGUGGCUGUGGCUAGACUGCC [A6C C15U], the self-cleavage amounted to 0.66.

Turning to GGCAGCGCUCAACAGAGCGUGGCAAAGUGGCUGUGGCUAGACUGCC [A6C C15G], the self-cleavage was found to be 0.04. The figure for GGCAGCGCUCAACAAAGCGUGGCAAAGUGGCUGUGGCUAGACUGCC [A6C C15A] is 0.1; for GGCAUAGCUCAACACAGCGUGGCAAAGUGGCUGUGGCGAGACUGCC [G5U U38G] it is 0.03; for GGCAUAGCUCAACACAGCGUGGCAAAGUGGCUGUGGCCAGACUGCC [G5U U38C] it is 0.05. Then GGCAUAGCUCAACACAGCGUGGCAAAGUGGCUGUGGCAAGACUGCC [G5U U38A], with 0.08; and GGCAUAGCUCAACACAGCGUGGCAAAGUGGCUAUGGCUAGACUGCC [G5U G33A], with 0.04. On to GGCAUAGCUCAACACAGCGUGGCAAAGUGGCUCUGGCUAGACUGCC [G5U G33C], for which the self-cleavage turned out to be 0.06. The figure for GGCAUAGCUCAACACAGCGUGGCAAAGUGGCUUUGGCUAGACUGCC [G5U G33U] is 0.05. The figure for GGCAUAGCUCAACACAGCGUGGCAAAGUGGCUGUGGCUAAACUGCC [G5U G40A] is 0.06.

As for GGCAUAGCUCAACACAGCGUGGCAAAGUGGCUGUGGCUACACUGCC [G5U G40C], the self-cleavage came to 0.05. Then GGCAUAGCUCAACACAGCGUGGCAAAGUGGCUGUGGCUAUACUGCC [G5U G40U], with 0.09.

For GGCAUAGCUCAACACAGCGUGGCAAAGUGGCUGCGGCUAGACUGCC [G5U U34C], the self-cleavage came out at 0.07. Then GGCAUAGCUCAACACAGCGUGGCAAAGUGGCUGAGGCUAGACUGCC [G5U U34A], with 0.04. The figure for GGCAUAGCUCAACACAGCGUGGCAAAGUGGCUGGGGCUAGACUGCC [G5U U34G] is 0.04.
